Test results: patent publication US20210340272A1 (ANWITA BIOSCIENCES, published 2021)

B1: R2G12 (original llama VHH, Anti-MSLN-9) as human IgG1 Fc fusion (Fc fusion)
chain: QVQLVESGGGLVQAGGSLRLSCAASGITFPVNAYGWYRQAPGKQRDLVAIISAGGTTNYADSVKGRFAISKDNVNNTVYLQMNSLTSEDTGVYYCYLQRRIGMLRDYWGQGTQVTVSS
notes: also called R2-G06(G12); not shown: human IgG1 Fc (hIgG1 Fc)
B2: R3C7 (original llama VHH, Anti-MSLN-6) as human IgG1 Fc fusion (Fc fusion)
chain: QVQLVESGGGLVEAGDSLRLSCVVSGRTLESYVMAWFRQAPGKEREAVASINWSSGRLIYADFVKGRFTISRDYEKNTIYLSMNNLKPEDTAVYYCAAGRYWGQGTQVTVSS
notes: also called R3-E08(C7); not shown: human IgG1 Fc (hIgG1 Fc)

What was measured:
[1] = target: T1, cell surface mesothelin on human cancer cell lines NCI-H226, OVCAR3, NCI-N87 and AsPC-1 (human, UniProt Q13421 296-598); assay: flow cytometry on AsPC-1 cells; Alexa Fluor 488 anti-human IgG secondary antibody
T1 construct: whole, on cells
T1 sequence (Q13421 other isoform, or with tags, fused parts or gaps limits assumed): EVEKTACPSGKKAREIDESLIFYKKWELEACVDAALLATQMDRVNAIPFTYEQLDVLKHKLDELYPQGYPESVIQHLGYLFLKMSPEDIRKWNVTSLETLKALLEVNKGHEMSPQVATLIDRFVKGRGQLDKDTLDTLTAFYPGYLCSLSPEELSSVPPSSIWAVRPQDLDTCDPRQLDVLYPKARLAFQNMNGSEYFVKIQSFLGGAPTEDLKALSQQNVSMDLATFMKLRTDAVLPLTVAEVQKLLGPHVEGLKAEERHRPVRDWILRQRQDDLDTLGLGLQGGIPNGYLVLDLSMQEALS
Method: (§1) After washing, cells were incubated with Alexa Fluor 488 conjugated secondary antibody (anti-human IgG, Life Technologies) for 20 minutes at 4C. Cells were washed and then fluorescence intensity of the cells was quantified by flow cytometry.

[2] = target: T1, cell surface mesothelin on human cancer …; assay: flow cytometry on NCI-N87 cells; Alexa Fluor 488 anti-human IgG secondary antibody
Method: as §1

[3] = target: T1, cell surface mesothelin on human cancer …; assay: flow cytometry on NCI-H226 cells; Alexa Fluor 488 anti-human IgG secondary antibody
Method: as §1

Binder | EC50 (read off the curve) [1] | EC50 (read off the curve) [2] | EC50 (read off the curve) [3]
B1 | ~7 ng/mL | ~5 ng/mL | ~10 ng/mL
B2 | ~6 ng/mL | ~4 ng/mL | ~10 ng/mL
